Source: PMC3592467 (Nucleic Acids Research, 2012)

T1: MBD3-GFP (UniProt O95983 1-291)
T1 sequence: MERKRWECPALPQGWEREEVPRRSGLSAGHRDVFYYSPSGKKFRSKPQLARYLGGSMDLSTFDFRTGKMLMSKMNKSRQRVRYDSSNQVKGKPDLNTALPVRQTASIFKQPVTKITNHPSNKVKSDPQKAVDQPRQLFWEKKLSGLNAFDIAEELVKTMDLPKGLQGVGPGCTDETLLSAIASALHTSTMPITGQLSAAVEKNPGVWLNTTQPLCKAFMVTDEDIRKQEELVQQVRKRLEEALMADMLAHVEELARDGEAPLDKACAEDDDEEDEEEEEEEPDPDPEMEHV


Target: T1, MBD3-GFP
Test: affinity purification with mass spectrometry

Row | stoichiometry N | Binder
1 | ~0.01 relative to MBD3 | ZMYND8 (natural protein) MDISTRSKDPGSAERTAQKRKFPSPPHSSNGHSPQDTSTSPIKKKKKPGLLNSNNKEQSELRHGPFYYMKQPLTTDPVDVVPQDGRNDFYCWVCHREGQVLCCELCPRVYHAKCLRLTSEPEGDWFCPECEKITVAECIETQSKAMTMLTIEQLSYLLKFAIQKMKQPGTDAFQKPVPLEQHPDYAEYIFHPMDLCTLEKNAKKKMYGCTEAFLADAKWILHNCIIYNGGNHKLTQIAKVVIKICEHEMNEIEVCPECYLAACQKRDNWFCEPCSNPHPLVWAKLKGFPFWPAKALRDKDGQVDARFFGQHDRAWVPINNCYLMSKEIPFSVKKTKSIFNSAMQEMEVYVENIRRKFGVFNYSPFRTPYTPNSQYQMLLDPTNPSAGTAKIDKQEKVKLNFDMTASPKILMSKPVLSGGTGRRISLSDMPRSPMSTNSSVHTGSDVEQDAEKKATSSHFSASEESMDFLDKSTASPASTKTGQAGSLSGSPKPFSPQLSAPITTKTDKTSTTGSILNLNLDRSKAEMDLKELSESVQQQSTPVPLISPKRQIRSRFQLNLDKTIESCKAQLGINEISEDVYTAVEHSDSEDSEKSDSSDSEYISDDEQKSKNEPEDTEDKEGCQMDKEPSAVKKKPKPTNPVEIKEELKSTSPASEKADPGAVKDKASPEPEKDFSEKAKPSPHPIKDKLKGKDETDSPTVHLGLDSDSESELVIDLGEDHSGREGRKNKKEPKEPSPKQDVVGKTPPSTTVGSHSPPETPVLTRSSAQTSAAGATATTSTSSTVTVTAPAPAATGSPVKKQRPLLPKETAPAVQRVVWNSSSKFQTSSQKWHMQKMQRQQQQQQQQNQQQQPQSSQGTRYQTRQAVKAVQQKEITQSPSTSTITLVTSTQSSPLVTSSGSMSTLVSSVNADLPIATASADVAADIAKYTSKMMDAIKGTMTEIYNDLSKNTTGSTIAEIRRLRIEIEKLQWLHQQELSEMKHNLELTMAEMRQSLEQERDRLIAEVKKQLELEKQQAVDETKKKQWCANCKKEAIFYCCWNTSYCDYPCQQAHWPEHMKSCTQSATAPQQEADAEVNTETLNKSSQGSSSSTQSAPSETASASKEKETSAEKSKESGSTLDLSGSRETPSSILLGSNQGSDHSRSNKSSWSSSDEKRGSTRSDHNTSTSTKSLLPKESRLDTFWD
2 | ~0.01 relative to MBD3 | ZNF592 (natural protein) MGDMKTPDFDDLLAAFDIPDPTSLDAKEAIQTPSEENESPLKPPGICMDESVSLSHSGSAPDVPAVSVIVKNTSRQESFEAEKDHITPSLLHNGFRGSDLPPDPHNCGKFDSTFMNGDSARSFPGKLEPPKSEPLPTFNQFSPISSPEPEDPIKDNGFGIKPKHSDSYFPPPLGCGAVGGPVLEALAKFPVPELHMFDHFCKKEPKPEPLPLGSQQEHEQSGQNTVEPHKDPDATRFFGEALEFNSHPSNSIGESKGLARELGTCSSVPPRQRLKPAHSKLSSCVAALVALQAKRVASVTKEDQPGHTKDLSGPTKESSKGSPKMPKSPKSPRSPLEATRKSIKPSDSPRSICSDSSSKGSPSVAASSPPAIPKVRIKTIKTSSGEIKRTVTRILPDPDDPSKSPVGSPLGSAIAEAPSEMPGDEVPVEEHFPEAGTNSGSPQGARKGDESMTKASDSSSPSCSSGPRVPKGAAPGSQTGKKQQSTALQASTLAPANLLPKAVHLANLNLVPHSVAASVTAKSSVQRRSQPQLTQMSVPLVHQVKKAAPLIVEVFNKVLHSSNPVPLYAPNLSPPADSRIHVPASGYCCLECGDAFALEKSLSQHYGRRSVHIEVLCTLCSKTLLFFNKCSLLRHARDHKSKGLVMQCSQLLVKPISADQMFVSAPVNSTAPAAPAPSSSPKHGLTSGSASPPPPALPLYPDPVRLIRYSIKCLECHKQMRDYMVLAAHFQRTTEETEGLTCQVCQMLLPNQCSFCAHQRIHAHKSPYCCPECGVLCRSAYFQTHVKENCLHYARKVGYRCIHCGVVHLTLALLKSHIQERHCQVFHKCAFCPMAFKTASSTADHSATQHPTQPHRPSQLIYKCSCEMVFNKKRHIQQHFYQNVSKTQVGVFKCPECPLLFVQKPELMQHVKSTHGVPRNVDELSSLQSSADTSSSRPGSRVPTEPPATSVAARSSSLPSGRWGRPEAHRRVEARPRLRNTGWTCQECQEWVPDRESYVSHMKKSHGRTLKRYPCRQCEQSFHTPNSLRKHIRNNHDTVKKFYTCGYCTEDSPSFPRPSLLESHISLMHGIRNPDLSQTSKVKPPGGHSPQVNHLKRPVSGVGDAPGTSNGATVSSTKRHKSLFQCAKCSFATDSGLEFQSHIPQHQVDSSTAQCLLCGLCYTSASSLSRHLFIVHKVRDQEEEEEEEAAAAEMAVEVAEPEEGSGEEVPMETRENGLEECAGEPLSADPEARRLLGPAPEDDGGHNDHSQPQASQDQDSHTLSPQV
